B1: 14-3-3 protein sigma (Homo sapiens), P31947 (parent)
chain: MERASLIQKAKLAEQAERYEDMAAFMKGAVEKGEELSCEERNLLSVAYKNVVGGQRAAWRVLSSIEQKSNEEGSEEKGPEVREYREKVETELQGVCDTVLGLLDSHLIKEAGDAESRVFYLKMKGDYYRYLAEVATGDDKKRIIDSARSAYQEAMDISKKEMPPTNPIRLGLALNFSVFHYEIANSPEEAISLAKTTFDEAMADLHTLSEDSYKDSTLIMQLLRDNLTLWTADNAGEEGGEAPQEPQS
partner: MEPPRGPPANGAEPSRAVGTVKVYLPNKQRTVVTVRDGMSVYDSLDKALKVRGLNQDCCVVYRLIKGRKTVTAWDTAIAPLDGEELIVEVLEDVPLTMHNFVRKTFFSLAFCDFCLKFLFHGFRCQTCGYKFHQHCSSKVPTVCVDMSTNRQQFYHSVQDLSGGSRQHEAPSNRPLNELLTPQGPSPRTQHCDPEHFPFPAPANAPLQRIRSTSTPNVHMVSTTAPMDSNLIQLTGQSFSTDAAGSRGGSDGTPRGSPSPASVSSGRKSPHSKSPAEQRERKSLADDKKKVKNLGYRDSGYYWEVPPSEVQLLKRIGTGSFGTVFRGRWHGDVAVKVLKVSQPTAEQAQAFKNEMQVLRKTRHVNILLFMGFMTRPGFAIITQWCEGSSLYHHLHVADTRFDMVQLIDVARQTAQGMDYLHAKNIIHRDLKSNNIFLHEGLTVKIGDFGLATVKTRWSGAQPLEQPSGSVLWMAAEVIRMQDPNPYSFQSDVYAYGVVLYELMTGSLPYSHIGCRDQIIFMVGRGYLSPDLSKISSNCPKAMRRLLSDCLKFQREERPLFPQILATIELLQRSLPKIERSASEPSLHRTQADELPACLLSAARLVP
B2: 14-3-3 protein sigma (Homo sapiens), P31947 (parent)
chain: B1 chain
partner: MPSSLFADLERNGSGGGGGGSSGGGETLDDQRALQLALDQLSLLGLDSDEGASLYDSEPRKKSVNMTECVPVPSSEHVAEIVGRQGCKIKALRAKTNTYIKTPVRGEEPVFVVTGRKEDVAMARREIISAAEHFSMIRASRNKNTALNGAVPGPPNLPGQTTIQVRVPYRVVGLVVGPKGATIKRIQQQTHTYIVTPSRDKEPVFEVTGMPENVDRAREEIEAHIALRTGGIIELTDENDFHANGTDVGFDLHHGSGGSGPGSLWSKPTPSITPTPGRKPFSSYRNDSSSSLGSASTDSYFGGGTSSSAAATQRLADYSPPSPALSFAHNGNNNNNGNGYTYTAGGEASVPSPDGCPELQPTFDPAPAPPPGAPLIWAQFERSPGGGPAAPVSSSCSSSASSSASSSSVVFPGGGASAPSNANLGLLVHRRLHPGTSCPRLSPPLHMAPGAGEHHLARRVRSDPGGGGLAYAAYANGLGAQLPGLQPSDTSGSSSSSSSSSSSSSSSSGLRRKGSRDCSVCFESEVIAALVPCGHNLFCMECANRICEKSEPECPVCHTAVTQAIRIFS
B3: 14-3-3 protein sigma (Homo sapiens), P31947 (parent)
chain: B1 chain
partner: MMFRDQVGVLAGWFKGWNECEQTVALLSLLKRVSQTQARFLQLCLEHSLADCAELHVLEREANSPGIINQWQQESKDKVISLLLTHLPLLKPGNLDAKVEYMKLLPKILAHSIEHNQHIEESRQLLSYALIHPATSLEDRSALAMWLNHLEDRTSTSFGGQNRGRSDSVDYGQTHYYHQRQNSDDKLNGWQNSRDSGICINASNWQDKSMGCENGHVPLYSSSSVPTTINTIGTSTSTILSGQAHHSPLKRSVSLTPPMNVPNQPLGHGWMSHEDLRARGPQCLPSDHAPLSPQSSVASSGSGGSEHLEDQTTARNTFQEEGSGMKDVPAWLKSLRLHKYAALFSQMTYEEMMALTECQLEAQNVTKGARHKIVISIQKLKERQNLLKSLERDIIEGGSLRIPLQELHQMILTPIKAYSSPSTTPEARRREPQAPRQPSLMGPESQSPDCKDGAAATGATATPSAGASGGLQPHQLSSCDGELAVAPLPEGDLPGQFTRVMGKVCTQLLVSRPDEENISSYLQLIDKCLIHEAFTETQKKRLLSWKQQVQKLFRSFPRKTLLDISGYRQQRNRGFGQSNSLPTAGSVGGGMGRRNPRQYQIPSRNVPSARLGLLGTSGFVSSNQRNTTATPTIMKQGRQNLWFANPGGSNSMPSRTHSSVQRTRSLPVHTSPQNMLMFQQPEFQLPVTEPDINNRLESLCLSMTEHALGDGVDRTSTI
B4: 14-3-3 protein sigma (Homo sapiens), P31947 (parent)
chain: B1 chain
partner: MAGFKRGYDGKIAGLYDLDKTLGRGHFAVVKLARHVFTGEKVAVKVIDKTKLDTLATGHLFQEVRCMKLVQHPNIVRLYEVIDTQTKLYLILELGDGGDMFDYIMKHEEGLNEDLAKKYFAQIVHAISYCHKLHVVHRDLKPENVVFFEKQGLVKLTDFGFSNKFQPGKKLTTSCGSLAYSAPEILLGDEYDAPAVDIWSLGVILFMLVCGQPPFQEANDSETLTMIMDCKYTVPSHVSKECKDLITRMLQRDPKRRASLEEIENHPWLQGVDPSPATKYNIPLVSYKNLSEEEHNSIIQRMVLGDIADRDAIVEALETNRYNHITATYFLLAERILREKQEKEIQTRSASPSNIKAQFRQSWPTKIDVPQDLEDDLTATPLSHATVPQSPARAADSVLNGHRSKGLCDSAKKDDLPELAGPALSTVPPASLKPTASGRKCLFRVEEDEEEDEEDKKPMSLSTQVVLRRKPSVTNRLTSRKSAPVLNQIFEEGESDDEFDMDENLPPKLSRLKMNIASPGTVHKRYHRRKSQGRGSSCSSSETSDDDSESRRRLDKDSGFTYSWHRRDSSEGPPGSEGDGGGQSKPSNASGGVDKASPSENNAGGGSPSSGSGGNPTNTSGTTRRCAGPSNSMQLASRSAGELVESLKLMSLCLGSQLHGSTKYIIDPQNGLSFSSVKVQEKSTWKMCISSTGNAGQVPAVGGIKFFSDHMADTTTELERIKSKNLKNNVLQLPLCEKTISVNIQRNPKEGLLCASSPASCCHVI
B5: 14-3-3 protein sigma (Homo sapiens), P31947 (parent)
chain: B1 chain
partner: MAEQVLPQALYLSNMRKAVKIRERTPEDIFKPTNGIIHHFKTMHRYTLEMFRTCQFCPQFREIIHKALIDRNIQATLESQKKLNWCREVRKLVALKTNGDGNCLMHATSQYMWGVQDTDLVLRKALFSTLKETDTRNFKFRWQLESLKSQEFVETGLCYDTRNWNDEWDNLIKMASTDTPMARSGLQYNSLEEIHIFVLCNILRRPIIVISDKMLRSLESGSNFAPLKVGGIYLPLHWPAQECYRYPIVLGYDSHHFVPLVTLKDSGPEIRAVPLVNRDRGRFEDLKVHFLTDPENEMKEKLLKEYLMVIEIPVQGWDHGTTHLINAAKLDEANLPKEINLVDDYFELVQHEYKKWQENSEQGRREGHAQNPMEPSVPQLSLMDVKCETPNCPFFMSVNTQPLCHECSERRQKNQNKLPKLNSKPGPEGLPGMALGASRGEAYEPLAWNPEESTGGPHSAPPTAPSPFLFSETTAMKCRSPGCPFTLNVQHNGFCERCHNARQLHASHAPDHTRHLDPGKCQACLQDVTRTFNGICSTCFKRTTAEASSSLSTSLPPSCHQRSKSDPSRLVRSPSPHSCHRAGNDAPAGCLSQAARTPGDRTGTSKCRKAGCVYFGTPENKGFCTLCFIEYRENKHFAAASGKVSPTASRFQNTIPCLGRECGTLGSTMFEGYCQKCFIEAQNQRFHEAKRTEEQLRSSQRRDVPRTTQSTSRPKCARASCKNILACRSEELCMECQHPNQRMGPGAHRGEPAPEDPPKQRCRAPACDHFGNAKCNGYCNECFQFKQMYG

Variants of: B1
Conditions: with araf_human ARAF

effect of a mutation on the interaction	Variant
decreasing interaction strength	K49E;R56E;V178D

Variants of: B2
Conditions: with mex3b_human MEX3B

effect of a mutation on the interaction	Variant
decreasing interaction strength	K49E;R56E;V178D

Variants of: B3
Conditions: with smag1_human SAMD4A

effect of a mutation on the interaction	Variant
decreasing interaction strength	K49E;R56E;V178D

Variants of: B4
Conditions: with snrk_human SNRK

effect of a mutation on the interaction	Variant
decreasing interaction strength	K49E;R56E;V178D

Variants of: B5
Conditions: with tnap3_human TNFAIP3, P21580

effect of a mutation on the interaction	Variant
decreasing interaction strength	K49E;R56E;V178D

Source: IntAct's records for PubMed 36931259
